Data: the DeepSol protein solubility set

Test: soluble on expression in E. coli; label from the status in PepcDB or PDB records

**Q.** Which “soluble on expression in E. coli” value does the source give for “MSFDGFFLHHLTNELQEQIEKGRIQKVNQPFDHELVLTIRNNRRNYKLLLSAHPVFGRIQTTEANFQNPQNPNTFTMIMRKYLQGAVIETIQQIENDRILEIVVSNKNEIGDHIKATLVVEIMGKHSNIILIDKNEHKIIESIKHVGFSQNSYRTILPGSTYIAPPKTKAINPFDISDQTLFELLQTNDLSPKNLQQLLQGLGRDTALELSHCLKDNKLNDFRQFFSREYYPSLTEKSFSAVQFSSSHETFQSLGQLLDYYYQEKAEKDRIAQQASDLIHRVQSELEKNIKKLAKQQDELLATENAEEFRQKGELLTTYLSMVPNNQDVVVLDNYYTNQTIEISLDRALTPNQNAQRYFKKYQKLKEAVKHLKGIISDTENTITYLESVETSLNHASMEDINDIREELVETGFIKRRAHDKQHKRKK” here?
**A.** not soluble

**Q.** Which “soluble on expression in E. coli” value does the source give for “MSFDGFFLHHMTAELREQVLYGRIQKVNQPFERELVLTIRNNRQNYKLLLSAHPVFGRIQTTKAELPNPQNPNTYTMIMRKYLQGAVIEDIQQLENDRVLEISVSNKNEIGDSVKVTLVMEIMGKHSNIILIDKNENKIIESIKHVGFSQNSYRTILPGSTYIAPPKTDARNPFDISDENLFELLQTEDLSAKNLQKLFQGLGRDTANELSALLETDKLKNFRDFFNREVEPNLTTKAFSAVRFSDSQDQPEFETLSELLDYYYLDKAARDRVAQQASDLIHRVQNELEKNKKKLVKQEKELAATENAEEFRQKGELLTTFLSMVPNDKDSVELDNYYTGEKITIPLNVALTPNQNAQRYFKKYQKLKEAVKHLTGLIEETKQTINYLESVEFSLSQANMDEIEDIREELVQAGFMRRRSTDKRQKRKK” here?
**A.** not soluble

**Q.** For “MSFFDKVKGAINSGRDELTRQVGRFKNKKFMQGTVAVCARIAVSSDGVSSEEKQKMMGFLRSSEELKVFDTNEVIEFFNKLVSSFDFDVEIGKGETMKYILALKDQPEAAQLALRVGIAVAKSDGNFDQDEKLASREIAIALGFDPAEFGL”, which “soluble on expression in E. coli” value is on record?
**A.** not soluble

**Q.** For “MSFKEIKAEDLQFNPFTRIGSDWMLITAGDEKKFNTMTASWGGAGVFWGKNVVTCYIRPQRYTKEFVDANDTFTLSFYGPECKNALNLCGTVSGRDRDKISEAGLTPYFTEGTAAFEEANLIFVCRKIYQDDMPYENFIAKENDAKYYPNKDYHTMYIAEIVKILVAE”, which “soluble on expression in E. coli” value is on record?
**A.** not soluble

**Q.** Which “soluble on expression in E. coli” value does the source give for “MSFYSAHQLALALEGLQRALDEIGIYSDILEDALLIACNVPVAEKTSILNDFQRADTINYGGLAAAIRANLAPDVCERRITEFQKKYAHGTDDQRLELLSDESVWRLEAYEAFADAEPLSTLEKIRLGVIGGPIDSIDPNWPLRKIAPERFLNDRWSRAVHDPRRIRRKIIGHRLPYRTKAEPDVPYGIPKRARLAARENSGPVRAPPLLGGAHPGQFRARGPAGVGVVSRHTRQFGAARGVLRGPTGNRVVPLFPVQIRARPPAPSQTIIRVQETERVKLEPTDNSYEEQKPPLLEN” here?
**A.** not soluble

**Q.** For “MSGELRVRRASSWELDLILKEAEKYGELLHEFFCVVEGKYRDVYAVNEEVWKIIEDINMRPYSLGTFVGTIRVDENLVEKFYPNLEFFSLIKLEKNYVILGPKASFLFTTGKDAPKEAVREIKWQGSKRVVVLNDLGDIIGIGLINPKSDRRFIKNLKDVGEFLRR”, which “soluble on expression in E. coli” value is on record?
**A.** soluble

**Q.** Which “soluble on expression in E. coli” value does the source give for “MSGLKLVTVLLLALCTATEAAKCRGKYMEMRGREGFVTRGGCRGLDSQIQEEYWTTVGFDGDLRDGRTTDDFLVFPANENNGHTQTNSFVGYWDMKESVNPITRSKYGENVHYEAFGHAFIKPDGKVCGWFVGSHKEVVEVCGGFRVLSRSRFNPHQPIPFEWVQGEQYRNRDVLGFHHHKIAKYEANADEVLFGDADVKGKKFNGVSINNEQRVEVDTPETFHRKVWLLRKKSTQPPSDVRAAYHHPRKLL” here?
**A.** not soluble

**Q.** With “MSGRGKVKSEPMKVVFINTQYVETDARSFKTVVQELTGKNAIVAAGPFDSPSAFDGRCYDGGSKIGEDTRQLHGGGGGGGRMGTTTEFDRLFKEMPHMEELYKLWSEY” as the sequence, how does the “soluble on expression in E. coli” value read?
**A.** soluble

**Q.** For “MSGVKIAFIRHHDLWIKVDGKEKQLTKGEYITGPKWSYDGEWLAYVKGEKQNTLELYRLKDGKKVTPFHSEVSNYQWSPTENIIAFIFTGTLHTFKVEKKNADFENVSAGVGDYAWYPNGKKFLVSSEAHLLPTGWTGAQLYEVQKDAHMNPHKMKHLYALPNEHDDFLALVASGFQWSPDQKWISFLAVPTASWSADSNTLCLVRADGSRFEKVDQMLLNTQWFKWAPANNILAYIEGSGRVALENKHLKVKELPALQQNTFTPKGYVDWDFTWKNDNVIIVSRAKEAGIETPPEKRPLPSLYEIDSTSDEQHRITKPPHRQGDYHPLFMNKSNQLIWIRSDRKKADVWLAHKDGKHEMKWIENIDVPLEHHHHHH”, which “soluble on expression in E. coli” value is on record?
**A.** not soluble

**Q.** For “MSGVRFPSGSLKDVRFFLHLFFSSKYGIIYVRYLDEEGTIMKQIIISVGREFGSGGHIVAQKLAEHYDIPIFNKELLEEMARKEGYSEKALEKYDEKPVNFGFMPLPYAGGNIPIEQEIAMKQFEFIKNKADAGESFVIVGRCADEILAYNPNLVSVFITGDRESKIARVMDREGLDRKQAINKMKRMDKIRKTYHNFYCRNKWGDSRGYDICINTGKTDFDTAKNMVVECVDKLKERSE”, which “soluble on expression in E. coli” value is on record?
**A.** not soluble

**Q.** For “MSGVSTAAYFARRAAQKERVRILYRRALKDTLNWAVHRHIFYRDEDVDRIDKLIAHGEAEYNKWRHPDPYIVPWAPGGSKFCRNPTPPAGIEIVYNYGLEDNP”, which “soluble on expression in E. coli” value is on record?
**A.** not soluble

**Q.** Which “soluble on expression in E. coli” value does the source give for “MSHHKLEVKNLSFTYPDGHKAIDGISFTVRHGESVGIVGENGAGKSTLLLVLMGVLFPNQGEVRVGDVRVTKKTLPLIRQRLGMVFQNPDDQLFMTTVYDDVAFGPRNYKLDEKEVEDRVMKSLDMVGISHLKDKAPYKLSGGEKRAAAIATVLSMQPDILVMDEPTSSLDPRSRRRVMELLKNFEHTKIITSHDLDMVLEICERTIVLKQGKVAADGLTSEILADKELMNTCGLEVPLALQGCPVCGEKKKYV” here?
**A.** soluble

**Q.** For “MSHHRIIIIGAGAAGVGMAITLQEFNIKDVLIVEKGTIGHSFKHWPLSTKTITPSFTTNGFGMPDMNAIAKDTSPAFTFNEEHLSGKRYAEYLSLVATHYNLNVKTNTNVSRVTYIDGIYHVSTYYGVYTADYIFIATGDYSFPYHPFSYGLHYSEIQTFTQLKGDAFTIIGGNESAFDAAINLSQTGARISIYTSKTGLKKEDADPSIRLSPYTQQRLRNAIQEGALIEMHVGYQARKITYQNHSYKIHFDNGHIVHSHTEPIIATGFDVTQNPLIEQLFQVRQSEVQLTELDESTKFPNVFLIGATVRHQNAILCYIYKFRARFAVLARIVSLREGLPEDTSLIQSYRQKNMFLDDYSCCDVNCTCLEHHHHHH”, which “soluble on expression in E. coli” value is on record?
**A.** not soluble

**Q.** For “MSHLPLLALSPLDGRYLSKVDTLRPIFSEYGLIKSRVKVEIAWLLALAAEPNIVELAPFSVAAQTRLRVLADGLTIEHAARVKEIEHTTNHDVKAVEYFIKEQLKDDIELRRGLEFVHFACTSEDINNLSYSLMLQQARDDVLLPTLDGIATHLRTLAHAQAAQPMLSRTHGQTASPTTLGKEIANVVARLERQRHQIATIALSGKINGAVGNYNAHTISYPEVNWPALAQRFVESLGLVFNPYTTQIEPHDTIAEISDAIRRANTILIDLARDLWGYISLGYFKQKLKEGEIGSSTMPHKVNPIDFENAEGNFGVANALFEHFSTKLPISRWQRDLTDSTVLRALGTAFGHTQVALDSLNKGLHKLSPNPERIDADLDAAWEVLAEAVQTIMRRHNLPNPYEQLKALTRGQGITADSMRAFIETLDLPTEAKQRLHDLTPRAYTGLAKQLALNI”, which “soluble on expression in E. coli” value is on record?
**A.** not soluble

**Q.** For “MSHTAEIPMVPGSESPLELKPLKAVDPKAVYHRRAQRLLSLAKDSPLADYFELCRRVVAIQARLAAEADFGQLLAWGKDEAIPLSHLGSEADSYWQGLLQQLLSDLLPQVGEDLARVLRLLMQQSPEQLTSWGASLRQGHMSAVPARFSLFIWAAMGVYWSHWAPMVIKRIDQRKVAQQNLCPICGSHPVASVIVDQPRAGLRYLHCSLCESEWHYIRAHCTSCGQDKGTTLWSFDDTQAQVRIESCDECHGYTKMMFVEKSPLMDVVADDLATLMLDSELNAKGFGATTVNPLLLAHETEQ”, which “soluble on expression in E. coli” value is on record?
**A.** not soluble

**Q.** For “MSIAVGMIETLGFPAVVEAADSMVKAARVTLVGYEKIGSGRVTVIVRGDVSEVQASVTAGIENIRRVNGGEVLSNHIIARPHENLEYVLPIRYTEAVEQFREIVNPSIIRRAAALEHHHHHH”, which “soluble on expression in E. coli” value is on record?
**A.** soluble
